# The DeepSol protein solubility set
# Assay: soluble on expression in E. coli; label from the status in PepcDB or PDB records
row,Sequence,soluble on expression in E. coli
1,MPLSSPDRLAIAVDLGTTTLAASLLDMATGERLAVAGSLNPQREFGADVIARLDAACRSKEARHRMAELVRGAIGRLAGELLESVGRSPEHLVTIAVAGNPAMEHLLLDLPVDALAFPPYRPLFTAGKTVPAVGLGWDLPAEVFLFPLPGGFVGGDTVAFLHGVPGPRSPVPGPRLYLDMGTNGEIALAADGKLLATSAAAGPAFEGGNLSCGMAALPGAISGVTFDGERLLVSTVEGKPATGICGSGVLSAIALLLDQGAIDSTGRLLPPEEIPSSIGNRLTTMGDERAFVLHRDATRTVWLSQEDIRQVQLAKGAIRAGMEVLFDRAGIESGAVGSVVLTGSFGAVLDPHSLKSLGVFTENMVQTTSFVREGALRGVEHALLTSGGLAAVDHLAGTIRVIPLSGTPAFEKHFLQHINFPHTILEHHHHHH,soluble
2,MPLVLDLARPVSEEELRRLSELNPGYQWERSPEGRLWVSPTGGESGRRSLQLAYQLARWNEERGLGVVFDSSTGFKFPDGSILSPDAAFVERGAWEALSEAEREGFPPLAPKAVFEVRSASQDPEELRAKMGIYLRNGVLLGVLVDPYARAVEVFRPGKPPLRLEGVERVSLDPELPGFALSLPPLW,soluble
3,MPLVSLIIRCYNEEKHIGRLLSGVMQQQGIDYEIIIVDSGSTDATVSIAQRYPIQLISIDPQNFSFGRSLNLGCQQASGEYLVFASAHVYPVYQDWLKQLIAPLQTNPQIALSYGKQRGNNQTQFSEHQIFAQWFPDQAQIPQTTPFCNNANAAIRRDLWQKYPYNEDLTGLEDLDWAKRLMQAGYQIAYVPDAEIIHVHQETPQRVRNRYRREAIALKQIFPEQTFSLGDFVRLTVSNTLSDYYYAWQSQQLMTQLWAIPQFRLMQFWGTYQGYHQNNSLNQQLRQTFYYPRPINTITPNVPSKDALKINYAQSDTQLVPDPSPPSPHQLEHHHHHH,soluble
4,MPMNRLISHIERSISIHKCVVVPSLGGFVAELLPACYDRDDNLIYPPKEELRFNAALSLRDGILEDSYARAYGISHRRARVMLDDDVRTLRAELVRAGRVSLEKMGELTLNPEGQISYSHRSEAEEGSGFSYGLAPCSLPRLAESFDEARPFAEREKEALSVGRSDYFYLKIHKRTGMMAAAAVMSAVLLVVPWGQISSSDKFAASFVPTELTAKSVWKDTEARPVQVVTAKPASVATTADSQPIEATASKPAESPNQLSTDVAEGGVPVMHEPVGSKCYYVVVGTFDTKKKAQEFYRMSIDKAIMPNAVVLLSSNKARIYSDRFATADEAQTYIRSMKDKHRLFADAWVYAGR,not soluble
5,MPNLLDDSFDPTFQSTSKKLVLPSIRKVQPEYDNLPEEQGVNDFSSDELMKLLSFMEGEVQAREDVIDHLKRERTKILLSEAKYGKLNMNDPFAALRRDSAITGEQIDEEKIVQMYESQVDQLDKMMAVQKQSQRNAAVLLVALEKKQYKLVKKLEADREAKIRYAKQGDDLVAHLEKERNQLQQQIEFHIEEKRKAEIAKDKMEMTLGNEKKRHESIVLYLIQERKQMLLKMHELRVKAEQIMLQNQNDPTKPGPSSALSERELIEELKKEVTFLRAERESLTKTQKMVKTENLSLRETVRGQEADLQMLRRNLTLTGAKMSIDKPGNVLPQLPPDTGSLIMANRGAKPAVNRQQPAPPPVARLPNSATFPTEKSRLPRAPPPAVTTPVPRMSIGSLPASSSNVPRTMSSPVKKTPVMGVSSTAVRRPQSAATTTMPTTSVITNTSAVMPLSPDLEQLEAAIQSMNVVTASPPAYSTAMAKRSSSLPREANNNPPGAPIRRSTMNGGMHTSTTGVVSTRIAGPSSNVASERKLSGTVKRNGILAKAFGSSK,not soluble
6,MPNLSNRLTLLREKQGWSKAETARRLGLKAPSTYGNWEYGIREPDLDMVTQIATLYDVSVDYLLGQQSIPTYAPSELQGEKDIAKRMIKISEDLRYEDDLNLNGKPLNDSAAHFLADSIDFLYEQAKKLND,not soluble
7,MPNSSILLIFLLTIVILIAPEENHKTYCEVLTSNNSNCTAYCKEKPECSWGRCEGYFKTNCVCYSDKYQFCE,not soluble
8,MPNVKDITRESWILSTFPEWGTWLNEEIEEEVVAEGNFAMWWLGNCGVWIKTPGGANVVMDLWSNRGKSTKKVKDMVRGHQMANMAGVRKLQPNLRAQPMVIDPFAINELDYYLVSHFHSDHIDINTAAAIINNPNLDHVKFVGPYECGEIWKKWGVPEERIIVIKPGESFEFKDIKVTAVESFDRTCLVTLPVDGAEEHDGELAGLAVTDEEMARKAVNYIFETPGGTIYHGADSHFSNYFAKHGKDYKIDVAINNYGDNPVGIQDKMTSIDLLRMAENLRAKVIIPVHYDIWSNFMASTDEILQLWKMRKERLQYDFHPFIWEVGGKYTYPQDKDRIEYHHPRGFDDCFEQESNIQFKALLMAGDPLEHHHHHH,soluble
9,MPPITQQATVTAWLPQVDASQITGTISSLESFTNRFYTTTSGAQASDWIASEWQALSASLPNASVKQVSHSGYNQKSVVMTITGSEAPDEWIVIGGHLDSTIGSHTNEQSVAPGADDDASGIAAVTEVIRVLSENNFQPKRSIAFMAYAAEEVGLRGSQDLANQYKSEGKNVVSALQLDMTNYKGSAQDVVFITDYTDSNFTQYLTQLMDEYLPSLTYGFDTCGYACSDHASWHNAGYPAAMPFESKFNDYNPRIHTTQDTLANSDPTGSHAKKFTQLGLAYAIEMGSATGDTPTPGNQ,soluble
10,MPPKVTSELLRQLRQAMRNSEYVTEPIQAYIIPSGDAHQSEYIAPCDCRRAFVSGFDGSAGTAIITEEHAAMWTDGRYFLQAAKQMDSNWTLMKMGLKDTPTQEDWLVSVLPEGSRVGVDPLIIPTDYWKKMAKVLRSAGHHLIPVKENLVDKIWTDRPERPCKPLLTLGLDYTGISWKDKVADLRLKMAERNVMWFVVTALDEIAWLFNLRGSDVEHNPVFFSYAIIGLETIMLFIDGDRIDAPSVKEHLLLDLGLEAEYRIQVHPYKSILSELKALCADLSPREKVWVSDKASYAVSETIPKDHRCCMPYTPICIAKAVKNSAESEGMRRAHIKDAVALCELFNWLEKEVPKGGVTEISAADKAEEFRRQQADFVDLSFPTISSTGPTGAIIHYAPVPETNRTLSLDEVYLIDSGAQYKDGTTDVTRTMHFETPTAYEKECFTYVLKGHIAVSAAVFPTGTKGHLLDSFARSALWDSGLDYLHGTGHGVGSFLNVHEGPCGISYKTFSDEPLEAGMIVTDEPGYYEDGAFGIRIENVVLVVPVKTKYNFNNRGSLTLEPLTLVPIQTKMIDVDSLTDKECDWLNNYHLTCRDVIGKELQKQGRQEALEWLIRETQPISKQH,soluble
11,MPPPIAFNASARKSQSVNQSDVMMMSDPSHVDIIKSNSHTTRIAVNLVSEPESRLKLHGEDARMSWTVLLLVFRATTIATRNNVPELDRELAR,not soluble
12,MPPPTASTPDDSADPGPDFADVPPTDLVKVGFIFRPHGLDGELKIDPSATDDPARFEVLPTVFVGPHPRRVVRHDIASVRYQKTKRGITVILGLDGIVDRDDAEAVAKMDVFATEAALGLEDDELFADDLVGWTVVTEEGAVQGTVADFMEMPAQDLFVVRTPEDTEAMIPAIDDFIIEIDEEAERIVVRPIDGLMDALEHHHHHH,not soluble
13,MPQDPRHPEHQYLDLVKHILENGARRMDRTGTGTLSVFGATMRFSLEDNTFPLLTTRRVFYRGVVEELLFFLRGETDSKVLEKKGVRIWEKNGAKQFLQSVGIDREEGDLGPIYGFQWRHFGARYETSASSYEGKGVDQIASAIAAIRANPASRRIVVSAWNPTDLGSMALPPCHVLFQFNVTDGKLSCAMYQRSGDMGLGVPFNIASYSLLTILVAHLTGLQPGEFVHFLGDAHVYLDHVDSLRQQIQRPPRAFPKLFVSPKGPRTEPEHFQYEDFELVGYDPHPAIKMNMSA,soluble
14,MPREESESPLLVYEDPRHTPYTPFKYARKDEEERSSGGGKSPPKKAPKAQDRMSLRDKFEAAPTTKKRKTAQDPADELLQAIKPLFNQVKKEMADQLADQLGRFNEQLDMAVNSFSDEIVKLKADHALAEKNVDTYAQKVSGMFQRADMMSANVQEQRTQQAEDNRMASKARDRIIYDIAQVATNMKTMSETIAKIDAREEQAAQKQAERHTPQGGQGSLEPALKCPLCKRHHAPENCTIIRNGLDRREEAEKIKMCIQCLEVGVTNDDWVHEGCPKEKEQCTRCTKYMKPGEIAQTHHNATFCLMLTSKQYKLERKGSPSDRDYSPKGRRGPIRSRHNRYGG,not soluble
15,MPRGLILATPQLPPDGTPFSARYDDVYHSTEGGLAQAHHVFLGGNGLPGGWQGKRSFTIVETGFGQGLNFLATWAAWRDDPQRCGRLDFVSVEKHPFDRAGLALVHAQEGALASLAEALRQAWPVPVPGVHRLVFDAGRVTLTLMLGDAETLLPQLSCAADAFYLDGFSPAKNPDLWQPGVFKQLARIARGGATLATYTAAGAVRHGLREAGFEVRKAPGFGRKRDMTVAAFPTHWRTRRGPAEAPVWPERHAIVLGAGLAGCSVAERLAARGWRITLIDEHEAPAGGASAHRAAAMHPHVSIDDSVLSRLSRAGNLLARRHWEALDRAGFATGFHPTGVLQLAEHADDAAEQQRIVQALGFPADFIAWLDAARAADRVGAGVPQGGWWFAQAGWVAPPDICRAALAAAGEAVELRWRTRIESLLRHDAGWRACDAQGNVIAHAPVVVLANSLDAVRLAPLASAALKPVRGQLTDVPVAALEDGVPWPRAVVCGDGYLLPRERGAPTVRVGSSFQPGETDPDARTADHAANLRRLAGLQPAHAAALARVDPARLLGYVGVRCVSANRLPLIGAVADEAAIMAPGFRLRGPHAALPRVPGLYAALAYGSRGLTWSVLGAELLAAQIDGGPLPLESELAAALDPGRFLMRALRHGKHAA,soluble
16,MPRKPKRPCSFPGCPELTDGRYCDMHQRQMDAYYNKYERDPQTRKRYDRRWKRIRDRYISEHPLCEECQKYGRLTPAEEVHHIIPLSKGGTNADSNLMSLCKQCHSSITAREGERWARR,not soluble
17,MPRPALRSRSLRRVYVKLPSGKTVIHYERKRNDIAICAICKKPLHGVKTNFLHKYSKSEKRPERPFGGYLCSSCLTQLIKATVRQQLQ,soluble
18,MPRTRVNLQKSEANDRSFTISSLEFCLSQLRKADPNLVKKAIASGDGLTESKNDVSTRLSEAHRYSVQQCLDNSEQLAQLHNQLVHCDNVFERLQATLYSFQDNLGSIGQDMKNLQLQSHHIHQELENRQKVRVELSQFVDDIAVSQTMMKTINDTDANDRGFLEALHELHHKITLILQRGNGDAVAVNDTMPILEGLKLKAVVKVREWLLQKMFQFRKPLSNYQVFQHQLLKCRFFYEFLLHHDLISAKELQDEYIDTISKMFFTYFKAYATRLFKLAMKDVATKEDALGSIDFAKPAGLGAIFSSKQHVVRNKATVFSIGQRHQILSDDFLGALIVPHAVTQNHQSVYLTIELAMARAMSVVLKSCEEQIALSWDAISLHLCICLCDKFTEVLAEREVPEVSDYWNTVTSFLWTRLNLVMSQHYESVKSVDLKKLMHSGSLDARPHFIVRRYAELTSAHLMIAKASGKEMGAKMEAVLENSEDSIEQLLTRMSAMQQTQKNKHVFLINNYDLILSIIDNEESKHTKIYAIVHELEQKSIDDFVEEMLEPHIGYMIKFVNECESLIVQGHTQLLVRYNDKVGTVVANFNAKWRPAVDSINSECIQLFTNFSLGTTILQTIFTKYVQYINRFTKILSHDVFAKNPVCSQLVNVHQVMLEIKRFKPAY,not soluble
19,MPSENPIGKTMKSIDEQSLHNARRLFESGDIDRIEVGTTAGLQQIHRYLFGGLYDFAGQIREDNISKGGFRFANAMYLKEALVKIEQMPERTFEEIIAKYVEMNIAHPFLEGNGRSTRIWLDLVLKKNLKKVVNWQNVSKTLYLQAMERSPVNDLELRFLLKDNLTDDVDNREIIFKGIEQSYYYEGYEKG,soluble
20,MPSGYGVLLATHDDDTVDVFTSGRKMRLTCSPNIDAASLKKGQTVRLNEALTVVEAGTFEAVGEISTLREILADGHRALVVGHADEERVVWLADPLIAEDLPDGLPEALNDDTRPRKLRPGDSLLVDTKAGYAFERIPKAEVEDLVLEELVPR,soluble
